Paper doi:10.1101/419721 (bioRxiv, 2018)
No end group written: not given here.

T1: PDZ domain of ARHGEF12 (MBP-PDZ) (human, UniProt Q9NZN5 72-151)
T1 sequence: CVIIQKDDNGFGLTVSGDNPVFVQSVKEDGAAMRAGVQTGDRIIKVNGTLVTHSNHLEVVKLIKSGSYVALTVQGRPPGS

T2: PDZ domain of SYNJ2BP (MBP-PDZ) (human, UniProt P57105 13-100)
T2 sequence: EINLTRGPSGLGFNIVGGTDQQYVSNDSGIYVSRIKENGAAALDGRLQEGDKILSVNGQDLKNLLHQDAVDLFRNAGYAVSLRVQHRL

B1: unphosphorylated RSK1 683-735 peptide (peptide)
peptide: QSQLSHQDLQLVKGAMAATYSALNSSKPTPQLKPIESSILAQRRVRKLPSTTL
B2: phosphorylated RSK1 683-735 peptide (peptide)
peptide: B1 peptide
modifications: also: phosphorylated, sites not given here

Experiments:
[1] = target: T1, PDZ domain of ARHGEF12 (MBP-PDZ); test: ITC
[2] = target: T2, PDZ domain of SYNJ2BP (MBP-PDZ); test: ITC

Binder | binding result [1] | binding result [2]
B1 | binds | binds
B2 | – | binds
